In PMC8881573, “Inhibition of SRP-dependent protein secretion by the bacterial alarmone (p)ppGpp” (Nature Communications, 2022):

How the values were obtained:
[1] = target: (Bs)MifM-stalled RNC (B. subtilis | B. subtilis (endogenous in the B. subtilis 168 extract)) (UniProt Q7WY64); test: cryo-EM structure; (Bs)SRP pre-incubated with GMPPNP, tenfold molar excess over MifM-stalled RNCs, 10 min at room temperature
[2] = target: (Bs)MifM-stalled RNC (B. subtilis | B. subtilis (endogenous in the B. subtilis 168 extract)) (UniProt Q7WY64); test: cryo-EM structure; (Bs)SRP pre-incubated with pppGpp, tenfold molar excess over MifM-stalled RNCs, 10 min at room temperature

Which percent of the particles with stably bound SRP (% of the particles) [1] does the source give for “recombinant (Bs)SRP (Ffh and 6S RNA) (from UniProt P37105 1-446) (natural protein)” here?
The percent of the particles with stably bound SRP (% of the particles) was 24.

What about the percent of the particles with stably bound SRP (% of the particles) [2] of the same substance?
Its percent of the particles with stably bound SRP (% of the particles) is 38.
